From paper PMC6908968 (Cell, 2019)

Columns and labels:
[1] = target: T1, thermolysin-cleaved EBOV GP on Jurkat-GP cells (cleaved GP) (Zaire ebolavirus, Makona (GP1 core …, strain))
T1 chain 1: not shown
T1 chain 2: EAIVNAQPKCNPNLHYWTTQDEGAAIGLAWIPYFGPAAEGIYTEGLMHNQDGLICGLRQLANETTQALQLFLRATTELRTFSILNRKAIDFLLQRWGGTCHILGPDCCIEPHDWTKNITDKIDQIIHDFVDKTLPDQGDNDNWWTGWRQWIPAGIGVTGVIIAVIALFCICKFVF

[2] = target: EBOV GP ectodomain residues 1-636 (GPec) (Zaire ebolavirus, strain  …, UniProt Q05320)

B1: 5.6.c2460 (antibody, V domains shown)
VH: QLQLQESGPGLVKPSETLSLSCSVSGGSISSSDDHWGWIRQSPGKGLEWIGSVSYSGSVYYNPSLKSRVTISVDTSKTQFSLRLRSVTAADTAVYNCARHRSDQMLFYWFDPWGQGTLVTVSS
VL: ETLMTQSPATLSVTPGESATLSCRASQTISSSLAWFQQKPGQAPRLLIHGASTRATGIPARFSGSGSGTEFTFTISSLQSEDFAVYFCQQYHNWPPTFGQGTKVEIK
binding result [1]: binds
binding result [2]: binds

B2: 5.6.c3955 (antibody, V domains shown)
VH: EVQLVESGGGLVQPGGSLRLSCAASGFTFSTYSMNWLRQAPGKGLEWISFISIRSTTTYYADSVKGRFTISRDDAKNSLYLQMNSLRDEDTAVYYCARVYMRTFYFDNWGQGTLVTVSS
VL: QSALTQPASVSGSPGQSITISCTGTSSDVGDYNYVSWYQQHPGKAPKLLIFDVSNRPSGVSNRFSGSKSGNTASLTISGLQAEDEADYYCSSYASSRTSWVFGGGTKLTVL
binding result [2]: binds

B3: 5.6.c2481 (antibody, V domains shown)
VH: QLQLQESGPGLVKPSETLSLTCTVSGGSISSSTYYWGWIRQPPGKGLEWIGSIFYRGITYYNPSLKSRVTISVDTSKNQFSLKLSSVTAADTAVYYCARGGVIVLMVYAIVPPDVWGQGTTVTVSS
VL: QSALTQPASVSGSPGQSITISCTGSRSDVGGYNYVSWYQQHPGKAPKLMISDVSNRPSGVSNRFSGSKSGNTASLTISGLQAEDEADYYCSSYTSSSTVVFGGGTKLTVL
binding result [1]: binds
binding result [2]: binds

B4: 15.0.c770 (antibody, V domains shown)
VH: QVHLVESGGGVVQPGRSLRLSCAVSGFTFSSCGMHWVRQAPGKGLEWVAVISYDGSDKYYADSVKGRFTISRDNSNNTLYLQMNSLSIEDTAVYYCAKDYYYGSGSDLYYYYYGMDVWGLGTTVTVSS
VL: EIVLTQSPGTLSLSPGDRATLSCRASQSVSSTYLAWYQQKPGQAPRLLIYGASSRATGIPDRFSGSGSGTDFTLTISRLEPEDFAVYYCQQYVTSPYSFGQGTKLEIK
binding result [1]: binds
binding result [2]: binds

B5: 15.0.c888 (antibody, V domains shown)
VH: QVQLVESGGGVVQPGRSLRLSCAASGFTFSSYGMHWVRQAPGKGLEWVAVISYDGSNEYHADSVKGRFTISRDNSKNTLYLQMNSLRPEDTAVYYCAKGARSSSSLDLYYYYYYMDVWGKGTTVTVSS
VL: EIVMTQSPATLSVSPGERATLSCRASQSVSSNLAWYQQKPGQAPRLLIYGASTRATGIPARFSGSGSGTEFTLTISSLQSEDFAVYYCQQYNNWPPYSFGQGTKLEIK
binding result [1]: binds
binding result [2]: binds

B6: 5.6.c2485 (antibody, V domains shown)
VH: QVTLKESGPVLVKPTETLTLTCTVSGFSLSTARMGVGWIRQPPGKALEWLAHIFSDDEKSYSTSLKSRLTISKDTSKSQVVLTMTNMDPVDTATYYCARIQSSEWIYYYYGMDVWGQGTTVTVSS
VL: DIQMTQSPSSVSASIGDTVTITCRASQDLSYWLAWYQQKPGKAPKLLIYAASSLQSGVPSRFSGSGSGTDFTLTISSLQPEDFATYYCQQAHSFPITFGQGTRLEIK
binding result [1]: binds
binding result [2]: binds

B7: 15.0.c775 (antibody, V domains shown)
VH: EEQLLESGGGLVQPGGSLRLSCAASGFTFSGYDMSWVRQAPGKGLEWVSLLSWSGDAKYYADSVKGRFTISRDNSKNTLYLQMNSLRAEDTAVYYCAGDSSGYNNERLYYTYYMDVWGKGTTVTVSS
VL: DIQMTQSPSSVSASVGDRVTITCRANQAISSWLAWYQQKPGKAPKLLISAASSLQSGVPPRFSGSGSGTDFTLTISSLQPEDFATYYCQQANSFPLTFGGGTKVEIK
binding result [1]: binds
binding result [2]: binds

B8: 5.6.c2455 (antibody, V domains shown)
VH: QVQLVESGGGVVQPGRSLRLSCAASGFTFSSYAIHWVRQAPGKGLEWVAVISDDGNHKYYADSVKGRFTISRDNSKNTLFLQMNSLRPEDTAVYYCAKNRLVFGVIWFYDMDVWGQGTTVTVSS
VL: QSVLTQPPSVSAAPGQKVTISCSGSSSNIGNNYVSWYQQLPGSAPKLLIYDNNKRPSGIPDRFSGSKSGTSATLDITGLQTGDEADYYCGTWDTSLRGVFGGGTKLTVL
binding result [1]: binds
binding result [2]: binds
